Target: T1, His6-SlyA (Escherichia coli K-12 MG1655?) (UniProt P0A8W3)
T1 sequence: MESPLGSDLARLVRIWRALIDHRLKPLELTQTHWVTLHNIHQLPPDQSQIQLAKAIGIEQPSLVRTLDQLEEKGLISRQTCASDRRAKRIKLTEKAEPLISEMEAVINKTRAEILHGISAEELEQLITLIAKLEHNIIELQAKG
Assay: EMSA
Conditions: 20 µl: 10 mM Tris/HCl pH 7.5, 50 mM KCl, 1 mM DTT, poly(dI-dC) (1 µg), ~1 nM biotin-DNA, 0-500 nM SlyA, 25 °C, 30 min

Row | Sequence | DNA binding | binding
1 | GCAAGCACCTTAAAATCACCATCATACACTAAATCAGTAAGTTGGCAGCATTACCGAAATCCCCATCCTTTAGGGCAGTGAGGATGTCAATAATAGCAGACCACATCATGAGTCATTCTGACCGACACATGCCAGAAGCAGAGGCTCCATCCCATTTTATACCTACCTTATAACACTTAGAAAAACAACATGTTAAAAATGTCTATTGGAAACAATTTTATTTCCAATTGTAATGATAACCATTCTCATATTAATATGACTACGTGATAATTAACTTTTGATGCACTCCGC (double strand) [fecI-insA-7 intergenic region] | binds | –
2 | GATGGGGATAAGCAGAGCGCTTATCCCCGGCAAAGAGCAATAACCCTTCTGCGATCCCTGCCGCCTTCGTCAAAAGTATCGACGGGGATCGCTACCAGATTAACCCGAATCGGCATGGAGTCAACGACGG (double strand) [sgcA-sgcQ intergenic region] | – | no binding
3 | GATGTATGTTCTAATAAAATAGATTGGGTGGGTTGTATATTGACGTTAGTATAAATAGTATTAATGCCGCTTGCATGAATCAAGCAAAATTTATTTATATTAGTAATATGTATTTAATTAATAAATACATACATTATTTTTATGATTAAGGATAATCAATAATTAAAACAGGAAGTTCT (double strand) [gspA-gspC intergenic region] | binds | –
4 | TGTTGCTAATAGTTAAATCGCGAATCATAAAAAGCAAAGGATCTTTTAACGAAATGTTAACTATGCGATCTGTATAGCAACTGCGGAAAACATTAATGCACTGATAAATAATGATTTATAAAAATAGGGTGCGAAATCCGTCACAGTTCAAACATACAAAATTTGTGATTTTACTTAACTATTGTGTAACTTTCATAAAACAATGTGATTCGTGTTTTTAATTAATTCACGAAAACTGGAATCGTAAAGGTGATGAC (double strand) [paaA-paaZ intergenic region] | binds | –
